Source: the supplement of paper PMC7877785
± gives the uncertainty stated by the source.

Assay: self-splicing fitness, log relative to wild type (ln ratio); higher = more splicing; Tetrahymena group I intron in knt gene, E. coli kanamycin selection, DiMSum; sequences stand for … in CUCUCU…GGAGGGAAAAGUUAUCAGGCAUGCACCUGGUAGCUAGUCUUUAAACCAAUAGAUUGCAUCGGUUUAAAAGGCAAGACCGUCAAAUUGCGGGAAAGGGGUCAACAGCCGUUCAGUACCAAGUCUCAGGGGAAACUUUGAGAUGGCCUUGCAAAGGGUAUGGUAAUAAGCUGACGGACAUGGUCCUAACCACGCAGCCAAGUCCUAAGUCAACAGAUCUUCUGUUGAUAUGGAUGCAGUUCACAGACUAAAUGUCGGUCGGGGAAGAUGUAUUCUUCUCAUAAGAUAUAGUCGGACCUCUCCUUAAUGGGAGCUAGCGGAUGAAGUGAUGCAACACUGGAGCCGCUGGGAACUAAUUUGUAUGCGAAAGUAUAUUGAUUAGUUUUGGAGUACUCGUGGUCG
Summary of the method: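 DiMSum derived fitness as the error-weighted combination of fold changes across replicates, kanamycin versus no kanamycin, normalised to wild type. E. coli BL21(DE3) held the library, which randomised all eight P1ex-region intron nucleotides within the knt kanamycin-resistance gene on pET-22b(+). Six replicate transformations grew overnight at 37°C or 30°C on LB agar with or without 25 μg/mL kanamycin, also containing 100 μg/mL carbenicillin, 50 μM IPTG and 0.2% rhamnose, and pooled colonies were amplicon-sequenced on an Illumina HiSeq 2500.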

Sequence	self-splicing fitness (ln) (30 °C)	self-splicing fitness (ln) (37 °C)
UGCUAGCAAUAUUACGCGAC	-2.66 ± 0.26	-1.58 ± 0.3
GAAUAGCAAUAUUACGAGGC	-3.58 ± 0.38	-2.2 ± 0.3
AAUGAGCAAUAUUACGAGUG	-3.11 ± 0.27	-2.23 ± 0.23
CGCAAGCAAUAUUACGUGAG	-2.69 ± 0.13	-2.15 ± 0.13
CUAGAGCAAUAUUACGUUGC	-3.14 ± 0.32	-2.18 ± 0.44
GUGCAGCAAUAUUACGCGAG	-2.55 ± 0.13	-1.7 ± 0.12
GUCAAGCAAUAUUACGGCAU	-1.55 ± 0.083	-0.119 ± 0.1
ACCCAGCAAUAUUACGACUU	0.148 ± 0.042	0.908 ± 0.062
CCAAAGCAAUAUUACGAGGA	-3.54 ± 0.17	-2.79 ± 0.18
GGACAGCAAUAUUACGACUG	-0.809 ± 0.12	-0.232 ± 0.17
AAUUAGCAAUAUUACGCAGG	-2.44 ± 0.23	-1.89 ± 0.23
UGGUAGCAAUAUUACGGUAA	-1.34 ± 0.18	-0.209 ± 0.12
GGUAAGCAAUAUUACGGGAC	-2.69 ± 0.29	-1.27 ± 0.2
UACAAGCAAUAUUACGCCGG	-1.53 ± 0.11	-0.146 ± 0.18
AACGAGCAAUAUUACGAAUA	–	-1.63 ± 0.34
GAUGAGCAAUAUUACGCGGG	-3.55 ± 0.42	-3.59 ± 0.47
GGCCAGCAAUAUUACGUUUU	-1.31 ± 0.065	-1.22 ± 0.079
CAAGAGCAAUAUUACGGUAC	-3.2 ± 0.26	-2.37 ± 0.21
GGAUAGCAAUAUUACGGUGG	-3.85 ± 0.18	-2.48 ± 0.14
CUCUAGCAAUAUUACGAUCG	-1.57 ± 0.081	-0.281 ± 0.12
UGAGAGCAAUAUUACGCCAG	-3.52 ± 0.42	-2.41 ± 0.35

Sequence	self-splicing fitness (ln) (30 °C)	self-splicing fitness (ln) (37 °C)
GAAGAGCAAUAUUACGGGUA	-2.6 ± 0.19	-1.89 ± 0.15
ACGAAGCAAUAUUACGCGGC	-2.63 ± 0.35	-2.22 ± 0.24
CCCGAGCAAUAUUACGUUCG	-4.22 ± 0.42	-2.55 ± 0.3
GCACAGCAAUAUUACGAUUA	-1.38 ± 0.087	-0.549 ± 0.086
AAGAAGCAAUAUUACGUCCC	-1.06 ± 0.16	0.89 ± 0.21
AGAUAGCAAUAUUACGCCAC	–	-2.5 ± 0.35
GUAAAGCAAUAUUACGUGCC	-3.19 ± 0.16	-1.93 ± 0.17
GAAGAGCAAUAUUACGGAUC	-1.1 ± 0.071	-1.1 ± 0.09
AUUUAGCAAUAUUACGCCCG	-1.48 ± 0.24	-1.15 ± 0.28
CAAGAGCAAUAUUACGUUCU	-3.7 ± 0.27	-3.35 ± 0.23
GAUCAGCAAUAUUACGUGUU	-1.75 ± 0.06	-1.48 ± 0.09
UUACAGCAAUAUUACGGUGG	-1.08 ± 0.087	-0.457 ± 0.1
GGUAAGCAAUAUUACGAACA	-0.0165 ± 0.19	-0.383 ± 0.18
CUCUAGCAAUAUUACGGGGA	-1.69 ± 0.17	-1.62 ± 0.14
CACAAGCAAUAUUACGGCUU	-3.67 ± 0.19	-2.98 ± 0.23
CUAGAGCAAUAUUACGCGCU	-3.47 ± 0.23	-2.19 ± 0.27
AUCGAGCAAUAUUACGAUAG	-3.68 ± 0.22	-3.23 ± 0.2
CGGCAGCAAUAUUACGCUGA	-3.18 ± 0.17	-2.17 ± 0.23
UCGCAGCAAUAUUACGUUGU	-2.56 ± 0.2	-1.73 ± 0.21
AUUCAGCAAUAUUACGAGAA	-1.51 ± 0.18	-1.74 ± 0.18
GUUUAGCAAUAUUACGGUCC	-0.925 ± 0.11	-0.109 ± 0.12
